Source: publication PMC5146272, “Structure of the RBM7–ZCCHC8 core of the NEXT complex reveals connections to splicing factors” (Nature Communications, 2016)

Experiments:
RBM7 1-98 (RRM) = molecular target: T1, RBM7 1-98 (RRM) (Homo sapiens, UniProt Q9Y580 1-98); experiment: fluorescence anisotropy; KD value only in inset of the figure, not in material; 20 mM Tris/HCl pH 7.5, 150 mM NaCl, 2 mM DTT, 20 °C, 10 nM RNA, 50 µl; details: protein: recombinant; label: 5'-6-FAM; single strand
T1 sequence: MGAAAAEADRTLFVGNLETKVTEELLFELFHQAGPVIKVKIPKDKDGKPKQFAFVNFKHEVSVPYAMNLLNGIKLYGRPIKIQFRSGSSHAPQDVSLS

[1] = molecular target: T2, RBM7 1-98 (RRM);ZCCHC8Pro (proline-rich segment) (Homo sapiens;Homo sapiens, UniProt Q9Y580;Q6NZY4 1-98;285-324, |); experiment: fluorescence anisotropy; affinity stated similar to RBM7 alone; KD value only in figure inset; 20 mM Tris/HCl pH 7.5, 150 mM NaCl, 2 mM DTT, 20 °C, 10 nM RNA, 50 µl; details: protein: recombinant;recombinant; tags: ;; copies: 1;1; label: 5'-6-FAM; single strand
T2 sequence 1: T1 sequence
T2 sequence 2: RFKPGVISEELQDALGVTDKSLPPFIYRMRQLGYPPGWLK

[2] = molecular target: T3, RBM7^1–137 (Z-tagged RBM7, residues 1–137) (human, UniProt Q9Y580 1-137); experiment: MST; 30 nM ZCCHC8^Pro-(GS)3-eYFP constant, unlabelled RBM7 1-137 titrated from 0.2 nM to 6.0 μM; 50 mM Tris/HCl pH 7.4, 150 mM NaCl, 10 mM MgCl2, 0.05% Tween 20; temperature jump analysis; triplicates; details: both partners purified
T3 construct: source: bacterial cells, in lysate (pull-downs); purified (MST)
T3 sequence (looked up): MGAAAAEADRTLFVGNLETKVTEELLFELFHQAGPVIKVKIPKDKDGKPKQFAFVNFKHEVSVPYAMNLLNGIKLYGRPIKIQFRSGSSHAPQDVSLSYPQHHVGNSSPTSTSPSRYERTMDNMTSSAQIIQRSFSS

**Q.** What does the source list for UUUUUUUU (ssRNA) [U8 RNA]?
**A.** binding result (RBM7 1-98 (RRM)): binds; binding result [1]: binds

B1: ZCCHC8^Pro-(GS)3-eYFP fusion protein (domain or fragment, human, UniProt Q6NZY4 285-324, looked up)
chain: T2 sequence 2
notes: eYFP joined by a Gly-Ser linker serves as the fluorophore of the MST; source: purified; not shown: (GS)3 linker and eYFP, C-terminal, kept
**Q.** How did the Kd [2] turn out when B1 was run?
**A.** 28 nM
